Test results reported in US20250295687A1, “TREM COMPOSITIONS AND METHODS OF USE FOR TREATING PROLIFERATIVE DISORDERS” (Flagship Pioneering Innovations VI, LLC, priority 2022, published 2025).

Experiments:
[1] = test system: nonsense mutation in TP53 (R196X; Arg→TGA) in Calu-6 lung carcinoma cells; experiment: Western blot of full-length p53 after PTC readthrough in Calu-6 cells (Example 6); format: cell-based; conditions: for PTC suppression / production of full-length p53 protein: 48 hours, Western blotting (FIGS. 1-3)
Protocol: Calu-6 is a lung cancer cell line known to harbor a nonsense mutation in TP53 (R196X; Arg→TGA) that results in a premature termination codon (PTC). To test PTC readthrough of the TREM, cells were treated with Arg-TGA, Ser-TGA, or Ser-TAG TREMs or with known translational read-through inducing drugs (RIDs).
(§1) To monitor the ability of the TREMs to readthrough the PTC mutation, the expression of TP53 was assessed by Western blotting 48 hours post-TREM delivery into the cells. Cells were washed once with phosphate buffered saline (PBS) and lysed with 100 uL of RIPA buffer (50 mM Tris, pH 8.0, 150 mM NaCl, 1% Nonidet-P40 (NP-40), 0.5% Deoxycholate, 0.1% sodium dodecyl sulfate (SDS)) supplemented with protease inhibitor, for 30 min at 4° C. The protein extracts were then centrifuged at 21,000 g for 15 min and the supernatant was transferred into clean tubes. Protein concentration was determined using a BCA Protein Assay Kit according to the manufacturer's instructions. 20 μg of total protein were loaded into an SDS-PAGE gel and transferred onto nitrocellulose membranes after electrophoresis. The membranes were probed with anti-p53, anti-p21, and anti-β-tubulin antibodies.

[2] = test system: p21 (downstream transcriptional target of p53) in Calu-6 cells; experiment: Western blot of p21 protein levels in Calu-6 cells (p53 functional rescue); format: cell-based
Protocol: Calu-6 is a lung cancer cell line known to harbor a nonsense mutation in TP53 (R196X; Arg→TGA) that results in a premature termination codon (PTC). To test PTC readthrough of the TREM, cells were treated with Arg-TGA, Ser-TGA, or Ser-TAG TREMs or with known translational read-through inducing drugs (RIDs). Briefly, 6×10^5 cells were seeded into a 6-well plate and transfected with […] of TREM in 15 uL of RNAiMAX+800 uL OptiMEM; 0.5 or 5 mg/mL G418, an aminoglycoside antibiotic; or Ataluren, a TRID that is approved for the treatment of DMD in Europe at the reported maximally effective dose of 10 uM.
as §1
To determine whether the rescued p53 protein was functional, cellular p21 protein levels were measured (FIG. 4). p21 is a downstream transcriptional target and well-established biomarker of p53 activity.

[3] = test system: NanoLuc with a TGA PTC; experiment: In vivo PTC readthrough of NanoLuc TGA reporter by hydrodynamic gene delivery (FIG. 5B); set-up: species or system mouse
Protocol: Hydrodynamic gene delivery (HGD) is a simple, fast, safe, and effective method for delivering transgenes in rodent models. A set of plasmids expressing both an eGFP-Luc-TGA reporter and a TREM were designed. To evaluate tolerability and determine optimal plasmid concentration for maximum TREM delivery to the liver, the eGFP-WT Luc plasmid was administered to adult CD-1 mice via tail vein hydrodynamic injection at three doses: 10 μg, 30 μg, and 50 μg. […] Next, 50 μg of DNA in saline […] was administered to mice via tail vein hydrodynamic injection to assess target engagement and PTC readthrough using either 1) eGFP-Nluc TGA reporter plasmid (PL-854), or 2) eGFP-Nluc WT reporter (PL1202), or 3) all-in-one plasmid eGFP-Nluc-TGA reporter with S-TAG (PL-1216), or 4) all-in-one plasmid eGFP-Nluc-TGA reporter with R-TGA (PL-1215).

Q: With `O=C(O)c1cccc(-c2noc(-c3ccccc3F)n2)c1` [Ataluren, reference compound] as the molecule, how does the “percentage of full-length p53 out of the total p53 protein” value ([1]; Calu-6 cells treated with 10 μM) read?
A: about 0%

Q: What about the “PTC suppression / production of full-length p53 protein” value ([1]; Calu-6 cells) of the same molecule?
A: ineffective

Q: `CN[C@@H]1[C@@H](O)[C@@H](O[C@@H]2[C@@H](O)[C@H](O[C@H]3O[C@H]([C@@H](C)O)[C@@H](O)[C@H](O)[C@H]3N)[C@@H](N)C[C@H]2N)OC[C@]1(C)O` [G418, reference compound] was tested. Which “rescue of TP53 mRNA levels / expression of truncated p53 protein” value ([1]; Calu-6 cells) did it give?
A: more effective in rescuing mRNA levels

Q: What about the “percentage of full-length p53 out of the total p53 protein” value ([1]; Calu-6 cells treated with 0.5 mg/mL) of the same molecule?
A: about 30%

Q: What about the “percentage of full-length p53 out of the total p53 protein” value ([1]; Calu-6 cells treated with 5 mg/mL) of the same molecule?
A: about 30%

Q: What about the “PTC suppression / production of full-length p53 protein” value ([1]; Calu-6 cells) of the same molecule?
A: marginally increased

B1: Arg-TGA: arginine non-cognate TREM: sequence of ARG-UCU-TREM body but with anticodon UCA instead of UCU (nucleic acid)
chain: GGCUCCGUGGCGCAAUGGAUAGCGCAUUGGACUUCAAAUUCAAAGGUUCCGGGUUCGAGUCCCGGCGGAGUCGCCA
modifications: listed as RNA, chemistry not fully specified
Q: Which results are given for B1?
A: percentage of full-length p53 of the total p53 protein ([1]; Calu-6 cells treated with 100 nM): about 95%; full-length p53 levels increase relative to cells treated with SEQ ID NO:623 ([1]; Calu-6 cells, 100 nM TREM, vs 100 nM SEQ ID NO:623): about 55 fold; full-length p53 levels increase relative to cells treated with SEQ ID NO:625 ([1]; Calu-6 cells, 100 nM TREM, vs 100 nM SEQ ID NO:625): about 11 fold; full-length p53 levels increase relative to cells treated with Ataluren ([1]; Calu-6 cells, 100 nM TREM, vs 10 μM Ataluren): about 55 fold; full-length p53 levels increase relative to cells treated with 0.5 mg/mL G418 ([1]; Calu-6 cells, 100 nM TREM, vs 0.5 mg/mL G418): about 55 fold; full-length p53 levels increase relative to cells treated with 5 mg/mL G418 ([1]; Calu-6 cells, 100 nM TREM, vs 5 mg/mL G418): about 14 fold; full-length p53 levels increase relative to mock-transfected cells ([1]; Calu-6 cells, 100 nM TREM, vs mock-transfected cells): about 55 fold; full-length p53 levels increase relative to untreated cells ([1]; Calu-6 cells, 100 nM TREM, vs untreated cells): about 55 fold; total p53 that was full length (FIG. 3) ([1]; Calu-6 cells, 48 hours post-TREM delivery, Western blotting): about 90%; PTC suppression / production of full-length p53 protein ([1]; Calu-6 cells): robustly induce PTC suppression; p21 levels increase relative to cells treated with SEQ ID NO:623 ([2]; 100 nM TREM, vs 100 nM SEQ ID NO:623): about 60 fold; p21 levels increase relative to cells treated with SEQ ID NO:625 ([2]; 100 nM TREM, vs 100 nM SEQ ID NO:625): about 30 fold; p21 levels increase relative to cells treated with Ataluren ([2]; 100 nM TREM, vs 10 μM Ataluren): about 60 fold; p21 levels increase relative to cells treated with 0.5 mg/mL G418 ([2]; 100 nM TREM, vs 0.5 mg/mL G418): about 60 fold; p21 levels increase relative to cells treated with 5 mg/mL G418 ([2]; 100 nM TREM, vs 5 mg/mL G418): about 60 fold; p21 levels increase relative to mock-transfected cells ([2]; 100 nM TREM, vs mock-transfected cells): about 60 fold; p21 levels increase relative to untreated cells ([2]; 100 nM TREM, vs untreated cells): about 60 fold; rescue of cellular p21 protein levels (FIG. 4) ([2]; Western blotting): able to rescue p21 protein levels; increase in luciferase signal compared to controls ([3]; mice, 50 μg of DNA in saline, tail vein hydrodynamic injection, all-in-one plasmid eGFP-Nluc-TGA reporter (FIG. 5B)): ~1000 fold; total flux signal in the liver ([3]; mouse, hydrodynamic delivery of plasmid (FIG. 5B)): about 2×10^9 p/s
